In patent publication US20100286365A1:

Target: GLP-1 receptor (GLP-1 cyclase assay of Example 11) (UniProt P32301)
Experiment: cell-based or functional assay

GLP-1 receptor (GLP-1 cyclase assay of Example 11), sequence (P32301 22-463 limits assumed): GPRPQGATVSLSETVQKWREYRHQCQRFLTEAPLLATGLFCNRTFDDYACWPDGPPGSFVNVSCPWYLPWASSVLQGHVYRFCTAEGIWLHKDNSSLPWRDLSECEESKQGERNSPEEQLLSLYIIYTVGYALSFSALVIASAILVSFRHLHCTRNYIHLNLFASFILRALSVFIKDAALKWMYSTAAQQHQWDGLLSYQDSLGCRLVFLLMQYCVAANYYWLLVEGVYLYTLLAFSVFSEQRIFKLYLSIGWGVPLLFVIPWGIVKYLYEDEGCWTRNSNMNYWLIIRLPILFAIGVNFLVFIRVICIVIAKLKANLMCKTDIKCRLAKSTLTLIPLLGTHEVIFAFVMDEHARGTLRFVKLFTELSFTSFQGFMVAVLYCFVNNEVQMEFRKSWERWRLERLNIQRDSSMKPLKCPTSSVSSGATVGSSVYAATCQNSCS

[^14Leu,^28Gln]Exendin-4-(1-32)-fGLP-1-(33-37)-miniPEG-(S)-2,6-diamino-1-(pyrrolidin-2-cyano-1-yl)hexan-1-amide (peptide)
GLP Cyclase EC50: 0.017 nM
